Paper PMC6504924 (2019)
Each block holds one binder with its values, some of them ahead of it.

Assays:
[1] = target: T1, NanoLuc:VEGFR2 fusion on cells (UniProt P35968 20-1356); test: competition with CBT-labeled VEGF165a
[2] = target: T1, NanoLuc:VEGFR2 fusion on cells; test: competition with CBT-labeled VEGF165a; remark: listed apart in the source
[3] = target: T1, NanoLuc:VEGFR2 fusion on cells
[4] = target: T2, NanoLuc:EGFR fusion on cells (UniProt P00533 25-1210)
[5] = target: T2, NanoLuc:EGFR fusion on cells; remark: listed apart in the source
[6] = target: T2, NanoLuc:EGFR fusion on cells; test: competition with CBT-labeled EGF
[7] = target: T2, NanoLuc:EGFR fusion on cells; test: competition with CBT-labeled EGF; remark: listed apart in the source
[8] = target: T3, NanoLuc:PDGFRβ fusion on cells (UniProt P09619 33-1106)
T3 sequence (P09619 33-1106): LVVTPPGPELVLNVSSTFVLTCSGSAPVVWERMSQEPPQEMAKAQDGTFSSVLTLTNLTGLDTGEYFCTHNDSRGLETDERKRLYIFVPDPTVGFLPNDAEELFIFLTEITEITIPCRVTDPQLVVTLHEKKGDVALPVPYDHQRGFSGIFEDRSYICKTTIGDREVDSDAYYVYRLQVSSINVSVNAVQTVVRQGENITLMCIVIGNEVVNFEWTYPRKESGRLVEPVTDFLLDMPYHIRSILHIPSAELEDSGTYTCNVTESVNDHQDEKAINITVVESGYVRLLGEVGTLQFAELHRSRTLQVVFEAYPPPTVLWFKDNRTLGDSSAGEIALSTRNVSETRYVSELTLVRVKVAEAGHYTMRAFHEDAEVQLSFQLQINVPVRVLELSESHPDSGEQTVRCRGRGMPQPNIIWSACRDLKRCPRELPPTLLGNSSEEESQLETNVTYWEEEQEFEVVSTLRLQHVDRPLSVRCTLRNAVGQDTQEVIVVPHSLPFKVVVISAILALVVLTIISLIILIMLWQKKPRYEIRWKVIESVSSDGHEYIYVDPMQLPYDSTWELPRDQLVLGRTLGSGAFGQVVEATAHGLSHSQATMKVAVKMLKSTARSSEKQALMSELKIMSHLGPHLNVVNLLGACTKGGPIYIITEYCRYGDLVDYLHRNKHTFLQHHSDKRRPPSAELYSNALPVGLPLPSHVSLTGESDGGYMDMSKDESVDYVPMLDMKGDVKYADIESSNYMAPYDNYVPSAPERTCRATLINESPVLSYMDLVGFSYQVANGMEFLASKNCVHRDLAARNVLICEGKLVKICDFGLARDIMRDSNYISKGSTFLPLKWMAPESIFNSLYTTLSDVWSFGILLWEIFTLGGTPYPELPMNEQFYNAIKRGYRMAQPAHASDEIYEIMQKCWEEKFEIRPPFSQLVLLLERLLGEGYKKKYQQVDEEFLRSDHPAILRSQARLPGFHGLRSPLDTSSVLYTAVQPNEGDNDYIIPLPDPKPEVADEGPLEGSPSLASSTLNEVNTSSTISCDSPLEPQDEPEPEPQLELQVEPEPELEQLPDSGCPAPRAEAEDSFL

[9] = target: T3, NanoLuc:PDGFRβ fusion on cells; remark: listed apart in the source
[10] = target: T3, NanoLuc:PDGFRβ fusion on cells; test: competition with CBT-labeled PDGF-BB
[11] = target: T3, NanoLuc:PDGFRβ fusion on cells; test: competition with CBT-labeled PDGF-BB; remark: listed apart in the source

T1 sequence (P35968 20-1356): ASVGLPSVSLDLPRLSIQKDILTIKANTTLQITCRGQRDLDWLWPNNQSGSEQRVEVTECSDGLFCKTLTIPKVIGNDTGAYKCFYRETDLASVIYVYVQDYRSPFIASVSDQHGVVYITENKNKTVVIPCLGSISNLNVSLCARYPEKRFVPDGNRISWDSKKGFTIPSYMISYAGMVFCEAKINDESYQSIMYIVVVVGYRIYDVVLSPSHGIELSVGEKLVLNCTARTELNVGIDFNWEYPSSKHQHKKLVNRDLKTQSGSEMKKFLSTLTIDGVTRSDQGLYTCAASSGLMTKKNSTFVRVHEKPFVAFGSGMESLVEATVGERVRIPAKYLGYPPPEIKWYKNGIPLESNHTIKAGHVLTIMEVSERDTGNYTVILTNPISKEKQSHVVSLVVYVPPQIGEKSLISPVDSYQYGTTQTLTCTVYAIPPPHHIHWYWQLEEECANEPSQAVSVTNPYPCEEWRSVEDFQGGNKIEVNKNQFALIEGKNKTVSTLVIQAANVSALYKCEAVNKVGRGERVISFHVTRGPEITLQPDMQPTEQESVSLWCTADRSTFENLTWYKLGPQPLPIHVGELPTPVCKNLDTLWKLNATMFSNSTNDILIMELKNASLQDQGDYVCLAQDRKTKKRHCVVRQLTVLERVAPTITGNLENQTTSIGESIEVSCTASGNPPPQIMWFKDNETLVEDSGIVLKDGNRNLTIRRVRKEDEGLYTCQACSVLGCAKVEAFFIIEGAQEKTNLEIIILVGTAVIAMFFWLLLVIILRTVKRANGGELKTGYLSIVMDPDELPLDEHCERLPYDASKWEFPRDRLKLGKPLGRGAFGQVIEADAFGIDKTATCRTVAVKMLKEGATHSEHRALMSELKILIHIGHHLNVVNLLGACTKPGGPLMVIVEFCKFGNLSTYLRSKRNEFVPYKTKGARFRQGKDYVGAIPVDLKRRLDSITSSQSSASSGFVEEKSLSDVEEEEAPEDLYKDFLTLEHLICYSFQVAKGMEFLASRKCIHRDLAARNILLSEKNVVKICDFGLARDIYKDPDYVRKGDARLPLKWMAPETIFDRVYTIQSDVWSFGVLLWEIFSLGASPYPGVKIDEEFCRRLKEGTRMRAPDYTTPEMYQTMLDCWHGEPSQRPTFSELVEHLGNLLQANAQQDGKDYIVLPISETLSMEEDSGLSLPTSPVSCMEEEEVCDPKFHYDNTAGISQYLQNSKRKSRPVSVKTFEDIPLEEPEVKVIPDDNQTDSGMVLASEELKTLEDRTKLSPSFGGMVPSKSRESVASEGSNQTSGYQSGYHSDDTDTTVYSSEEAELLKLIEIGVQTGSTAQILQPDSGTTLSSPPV

Ki [1]: 0.047 nM
IC50 [2]: 0.12 nM
B1: unlabeled VEGF165a homodimer purified in the same manner (with CDN N-terminal appendage) (ligand)
chain: CDNAPMAEGGGQNHHEVVKFMDVYQRSYCHPIETLVDIFQEYPDEIEYIFKPSCVPLMRCGGCCNDEGLECVPTEESNITMQIMRIKPHQGQHIGEMSFLQHNKCECRPKKDRARQENPCGPCSERRKHLFVQDPQTCKCSCKNTDSRCKARQLELNERTCRCDKPRR
modifications: disulfide-linked homodimer; unlabeled; mature VEGF165 limits by convention (191-aa AUG-initiated isoform precursor, signal 1-26)

IC50 [6]: 0.35 nM
Ki [7]: 0.15 nM
B4: unlabeled EGF purified in the same manner (with CDN N-terminal appendage) (ligand)
chain: CDNNSDSECPLSHDGYCLHDGVCMYIEALDKYACNCVVGYIGERCQYRDLKWWELR
modifications: not fully specified

EC50 [4]: 0.25 nM
B5: EGF labeled with 5-fold molar excess of DY605-NHS-ester (ligand)
chain: B4 chain
modifications: DY605-NHS-ester on multiple lysines and on the N-terminus, heterogeneous (0-2 fluorophores per protein)

IC50 [10]: 0.11 nM
Ki [11]: 0.044 nM
B8: unlabeled PDGF-BB homodimer purified in the same manner (with CDN N-terminal appendage) (ligand)
chain: CDNSLGSLTIAEPAMIAECKTRTEVFEISRRLIDRTNANFLVWPPCVEVQRCSGCCNNRNVQCRPTQVQLRPVQVRKIEIVRKKPIFKKATVTLEDHLACKCETVAAARPVT

Further lines, the binder ahead of its results:

B2: CBT-labeled VEGF165a homodimer (vascular endothelial growth factor isoform VEGF165a labeled with DY605-PEG-CBT on the N-terminal cysteine) (ligand)
chain: B1 chain
modifications: DY605-PEG-CBT on the N-terminal cysteine (>=95% efficiency)
Kd [3]: 0.049 nM

B3: CBT-labeled EGF (epidermal growth factor labeled with DY605-PEG-CBT on the N-terminal cysteine) (ligand)
chain: B4 chain
modifications: DY605-PEG-CBT on the N-terminal cysteine (>=95% efficiency)
EC50 [4]: 0.13 nM
Kd [5]: 0.16 nM

B6: EGF labeled with 2-fold molar excess of DY605-NHS-ester (ligand)
chain: B4 chain
modifications: DY605-NHS-ester on multiple lysines and on the N-terminus, heterogeneous (0-2 fluorophores per protein)
EC50 [4]: 0.16 nM

B7: CBT-labeled PDGF-BB homodimer (platelet-derived growth factor labeled with DY605-PEG-CBT on the N-terminal cysteine) (ligand)
chain: B8 chain
modifications: DY605-PEG-CBT on the N-terminal cysteine (>=95% efficiency)
EC50 [8]: 0.068 nM
Kd [9]: 0.062 nM
